Measured values published in paper PMC4664390.

Molecular target: CmbHLH2 (Chrysanthemum morifolium)
Sequence (main, as listed by the source): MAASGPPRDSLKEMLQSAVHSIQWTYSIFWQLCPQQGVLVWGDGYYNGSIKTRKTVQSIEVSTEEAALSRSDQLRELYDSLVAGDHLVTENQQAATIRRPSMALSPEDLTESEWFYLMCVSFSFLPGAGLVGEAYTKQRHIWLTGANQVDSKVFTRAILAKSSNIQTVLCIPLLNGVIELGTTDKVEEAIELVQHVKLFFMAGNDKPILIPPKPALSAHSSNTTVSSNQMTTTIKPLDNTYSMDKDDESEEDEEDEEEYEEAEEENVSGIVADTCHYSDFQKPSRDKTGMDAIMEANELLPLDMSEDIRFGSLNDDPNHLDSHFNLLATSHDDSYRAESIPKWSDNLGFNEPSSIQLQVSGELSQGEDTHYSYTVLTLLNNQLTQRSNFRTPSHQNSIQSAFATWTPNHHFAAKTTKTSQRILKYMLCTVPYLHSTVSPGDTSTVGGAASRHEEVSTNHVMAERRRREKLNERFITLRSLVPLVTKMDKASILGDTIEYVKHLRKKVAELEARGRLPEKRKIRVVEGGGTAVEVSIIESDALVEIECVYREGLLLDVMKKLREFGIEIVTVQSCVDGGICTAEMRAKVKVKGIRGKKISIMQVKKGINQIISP

## CmMYB6 (natural protein)
  CmDFR promoter activity in dual luciferase assay (LUC/REN) in tobacco leaves on co-expression of CmbHLH2 with CmMYB6, relative to the empty vector set as one: > 40 fold
